# Source: paper PMC11260466, “Binding of the TRF2 iDDR motif to RAD50 highlights a convergent evolutionary strategy to inactivate MRN at telomeres”
# B1: 48-mer DNA duplex (dsDNA)
# DNA 1: TAGTGCTGTAGGAGAATATACGGGCTGCTCGTGTTGACAAGTACTGAT
# DNA 2: ATCAGTACTTGTCAACACGAGCAGCCCTATATTCTCCTACAGCACTA
# Biological target: HsRAD50-head (Homo sapiens, UniProt Q92878;Q92878 1-200;1113-1312)
# Test: EMSA; Mg-ATP; EMSA: 20 mM Bis-Tris propane pH 8.0, 200 mM NaCl, 0.5 mM TCEP, Mg-ATP added to RAD50, 500 nM DNA duplex; 5% polyacrylamide, 0.5x TBE, 4 C gel run (binding temperature not stated)
# Settings: protein: recombinant; tags: C-terminal 3C site + 2xStrep-II on the 1-200 fragment; chain copies: 2;2; label: 5'-carboxyfluorescein (F) on strand 1; blunt ends; as printed S2 is 47 nt and lacks the G opposite C21 of S1 (1-nt bulge, possibly a misprint)
# HsRAD50-head, sequence (Q92878 1-200, chain 1 of 2): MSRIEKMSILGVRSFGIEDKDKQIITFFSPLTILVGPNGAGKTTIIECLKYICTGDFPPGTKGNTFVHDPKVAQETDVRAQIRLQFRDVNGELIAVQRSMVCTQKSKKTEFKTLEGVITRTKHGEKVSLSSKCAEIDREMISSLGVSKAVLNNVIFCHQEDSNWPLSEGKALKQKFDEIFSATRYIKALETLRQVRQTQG
# HsRAD50-head, sequence (Q92878 1113-1312, chain 2 of 2): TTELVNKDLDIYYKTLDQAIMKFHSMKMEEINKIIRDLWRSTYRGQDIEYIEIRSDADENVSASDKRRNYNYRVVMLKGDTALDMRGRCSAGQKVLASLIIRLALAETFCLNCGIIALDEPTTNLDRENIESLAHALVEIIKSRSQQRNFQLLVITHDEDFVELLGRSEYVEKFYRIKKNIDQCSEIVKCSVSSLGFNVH
binder,measurement,value
B1,binding result,binds
